Consider one molecule from publication PMC5464773, “Epistatic mutations in PUMA BH3 drive an alternate binding mode to potently and selectively inhibit anti-apoptotic Bfl-1” (eLife, 2017).

The assay deals with Myc-tagged Bfl-1 (human, UniProt Q16548 1-175). The assay can be described thus: fluorescence polarisation; competition: 0–10 μM unlabeled peptide titrated into 50 nM c-myc-tagged receptor plus 25 nM fluoresceinated BIM; 25 mM Tris pH 7.8, 50 mM NaCl, 1 mM EDTA, 5% DMSO, 0.001% v/v Triton-X; 23°C, 3 hr; fit to a complete competitive binding model. Conditions: both partners purified. For orientation: Polarisation of emitted light reports the rotation of a fluorescent probe.
Chain of Myc-tagged Bfl-1 (Q16548 whole entry): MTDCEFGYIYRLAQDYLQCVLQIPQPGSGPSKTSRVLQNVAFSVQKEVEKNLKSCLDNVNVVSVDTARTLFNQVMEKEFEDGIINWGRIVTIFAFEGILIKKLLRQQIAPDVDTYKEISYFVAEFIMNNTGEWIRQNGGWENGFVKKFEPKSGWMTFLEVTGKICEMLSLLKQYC

B1: BIM-FS2 (peptide)
chain: RPVIWIAQGLRRAGDEVNAYVAR
modifications: probably N-terminal acetyl and C-terminal amide; 23-mer 1f-4g assumed by analogy with PUMA/FS2; printed E2bV read as E2aV (2b is Ile in BIM, 2a is Glu and FS2 has Val at 2a); A2eA is no change / Myc …
Usually Ki stands for a dissociation constant, usually derived from enzyme kinetics or from competition with a known ligand. On to B1, for which the Ki worked out at 720 nM.
